From the DeepSol protein solubility set

Test: soluble on expression in E. coli; label from the status in PepcDB or PDB records

Soluble on expression in E. coli, not soluble:
MGSDKIHHHHHHPLGSPEAGDISEERQAFLRLTAVYSVMKDFRYTWSMQCFGDVLSNDATYSGSSNDAQTFTLLENYQYQADHTEILNKYRYSYQCINKANLFIRDMEMADDALFSKYDKEQMIGEAKFIRAYTYFELVKTFGGVPCYTGVLDLDHERLGRASVEEIYSVIEQDLNDAVSVLPKKSEVANYESSYAGRITKGAAIAMQTRIYLYEKKYDEVKKAFEKFQNECGGEYSLVAPEDYTWQFSLDGEHCSSSILEVNMYNSSTQSSYNVNNGNRHVLMSMPRNMTIGFGCAQPTQALADAYDAEGDVIRKKTTLLSTEEAIEIETAAKGDVAPVTDDRTGWYNRKLYLAPGQREENRGNNQPTNLRLIRLAEVYLNYAEACYFSGDIANAQKYLNEVRSHVNLAPKNHTGSQLFEDIMNERHLEFGMEGFRFFDVVRVGWGEKVFNGTKKAEFGAKTPFSAGAEVLPIPQTEIDISDGLITN
MGSDKIHHHHHHPVAIIGGGPVGLAAAAHLAVRDVPFVLFEGKSEVGASILEWKHVSLFSPWKYNIDRAAKSLLEKESWKEPAGDRLPTGEQLVRDYLQPLAETKALKPYIYTNAPVQSIYRKGIDKIKDHNRENTPFIIRYKQDNDQKTLRARAVIDATGTWFSPNPIGAGGVPAIGEEEAKDSIYYGIPDVKGKDRSRYEGKTILVVGSGHSAIHTLLDLAQLKEAAPSTRILWAIRRNSPNGLFGGGQEDALPARGQLGLALEALLSKQKVELISSFEMEQIDRVEGRLSVVGVQNESPISLPLVDEIVANTGARPTVDYHRDIRYQLDSKLESVPALAPLIDPNIHSCGTVRPHGEKELRQPEKNFYIAGVKSYGRAPTFLLATGYEQVRSIVASLAGSKKEAERVELQLPKTGVCKSDFLAKRSCC
MGSDKIHHHHHHQPSSNRYARVDAAILSIPDEYTKKVDTFAEYINRKFKGDEAKMRAIYVWMTHRMAYNVFTTFTSRNEVYSEEKEVQETLSTRKGVCRQFALLFKTLAGKVGIKAYLIDGYGKSGNVVLPEVHEWCVAQVNGEWYFFDPTYDTGYIEDYRFVSAPDDVYFKQLPERFIQTHMPFDPLWQFLKRPYSYSEFEKGVLESGRNVPFFCWQDSLKVYDRQSWVEQLEAARSRILANGKGNDLVDYFLQLNQANTQVGKDSEAIDVYAAATDLQNRAVDSINVFIRYRKAGFRPRKAEAQVRRMIEVSEELTLRADSLINSVHTISPQYKQALLNLRESIMDLAMQIYKHKLFLERYYATKPSLRGNLLRR
MGSDKIHHHHHHSGSFDPVTGAYTTDPITVTLTPKTVAVSTSVIANGERVYWATDKYPQGAGTFYWGSHTYTLESASDVTLAIPGINASGVCTATGSGTSLTINGCFSFSHNGTIYMGKSASCKSFFSLQSNLSSLTNFGDFVALTLGPGTNTIQLNKTGITDVNTTSFTYPSTTRSTSYRWTTYDINLQATLSAKTPPYTYLYCSVSQGLRVIMTTGGVVPNPFAMVPAASKPAYSPTISYSPALPIINTIAVNIRNITAIDILPRTVFNTGTISAWRTTYMEQPLTVTGQGNITRDFGASQNFNVLESWTCATTGQIDFRIMRDNTNANVCSGATYTHPVQTPQSLTAQWKAQSSTASGAWSARATVTFTLP
MGSDKIHHHHHHSKNSLPILDSFLFNLEGNTLTVTASDAETRLVTSVDVMNAQGAGLFAVSAKILLDPLKELPEQPLTFDINDENLEIFIHFQNGKYNFIGQKGDTYPQQKPLNDNAISISMDAQMLLNGISRSLFATADDELRPVMNGVYFDIHTDDLTFVASDGHKLVRLRNLAVKSPERASFILPKKPANLLKNLLAKESEQVLIKFDDNNAYITCTNFEMVCRLIEGRYPNYNSVIPQENPFKVTIDRISFLNALKRVSVFSNPASSLVKLHLKDSLITVSAQDIDFSTSAEERIVCQFDGTELSIGFKATYLIEILGNISSEEVVLELADPSRAGLIVPSENDEDEDLLMLLMPMMLND
MGSDKIHHHHHHSPTTTVTTTDASVTTTPPTTTPPTTAVVTDCTTCTAALITLTQGTDGAVDATPVEGVDATGCATITYTCENTPVDAQNVIFLTFYGGGIDRGVDQGTGSLNVLLNCVDGAWVRGGLVIDEILCQVI
MGSDKIHHHHHHSRSGEKAAQQLVDYFIYQEKPETFSQTFREPKVLAEHLQTSRQQFQKQFFNSLKEMNAEVTETEAQKLSAELLAQVKKKASYQLVATKELNGQATITFQIKGLDFVTAIEDTTTALLQQTQQATQALDMQHTLAVLKKEIQQINVSHEPVELPLTVKQVEGQWYLPAVEQLRLNQFFLAFVTGKEDTDQLTEALDTILTQAEQKVVTADERTAIAGN
MGSDKIHHHHHHTKRWEEGKMSNFEYLTMLNLFAGRTIHDSSSSPIFPRILAKFGDKSVDLQDKTIYRKLDRPVAAQDPVSVEKHKEHYNELKENEEISHLTPYHFGSMCSNRGVVSFFNIRLLPFGEEAIELQDGRFDFPDRLFHNIESGLGLGKIESSNDYKELVPELFTTVEVLRNDNGNQFGEKQNGETVNDVDVPQWCYMDEKAVHENFIYLHRHALESEIVQSMLHHWIDLVFGYKSRGKSAHDAINVYHPAVYPGNSPPPSFDRVMTNAYEANQKTLGTAPIQLFTQSHPKR
MGSDKIHHHHHHTSEEREVFENQEGMHRLIPLIEAQTEEDLTPTMREYFAQIREYRKTPHVKGFGWFGNWTGKGNNAQNYLKMLPDSVDFVSLWGTRGYLSDEQKADLKFFQEVKGGKALLCWIIQDLGDQLTPKGLNATQYWVEEKGQGNFIEGVKAYANAICDSIEKYNLDGFDIDYEPGYGHSGTLANYQTISPSGNNKMQVFIETLSARLRPAGRMLVMDGQPDLLSTETSKLVDHYIYQAYWESSTSSVIYKINKPNLDDWERKTIITVEFEQGWKTGGITYYTSVRPELNSMEGNQILDYATLDLPSGKRIGGIGTYHMEYDYPNDPPYKWLRKALYFGNQVYPGKFD
MGSDKIHHHHHHTVPTFYLFGLLIMHNAAQHNYVISLTTEQKRRKHITEEFGKQNIPFEFFDAITPDIIEETAKKFNITLDRSPKAKLSDGEIGCALSHIVLWDLALENNLNYINIFEDDIHLGENAKELLEIDYISDDIHVLKLEANGKMFFKQPKSVKCDRNVYPMTVKQSGCAGYTVTAKGAKYLLELVKNKPLDVAVDSLVFEDFLHFKDYKIVQLSPGICVQDFVLHPDNPFESSLQEGRDRVHGNQRKSSILEKIKNEFGRVKIKMFGKQVPFK
MGSDKIHHHHHHVAPPTKGGLAEAENKMENKMTEQQGYWIGEAGKPWGEAEKAKWRAAQQKKRSYEQEVLSKFSQVSESFEAQQYGELNYAEGQYPLYGFKSRDWDQEKPTILVTGGVHGYETSGVQGALRFLIAKAAEYSQDFNILVAPCVSPWGYETINRWNPEAIDPNRSFYADSPAQESRALMQWVASFNLPLMAHIDLHETTDTDNSEFRPALAARDAKVQTNWNIPDGFYLVGDSENPNDEMQAAIIAAVGKVTHIAPADEQGRLIGEPITQFGVINYATKALGLCSGFSDARYNTTTEVYPDSPLVDDENCIQAQVMAVSSALDYIRSQG
MGSDKIHHHHHHVEGDCMGKGRFILMLHAHLPFINHPDFPSFMEERWLFEAITETYIPLLQGFRRLKRDGVNFKVTMSITPPLMEMFANKDLQKKYLNYLSSSIELAGNEISRTVSEHPAANRLATHYLRELEEIRAVYNECNGDLVGEFAQLQETGELEIVTCNATHGFLPLMTNFPEAINAQIEIGVDSYKKHTGREPRGIWLAECGYVPGFDSYLREHGLSFFFVDSHSLWYGDPAPRYGVYRPVVTPENVFAFARDPESSQQVWSAEVGYPGDARYREFYRDVGFDREEDYIRPYIDPSGERCNTGIKYYKITGKDVSLNEKGYYDIEDARRATVEHAKDFANRKREQIRRLSSQFDGEEPVIVAPFDAELFGHWWYEGPLFIEELFRELNGDITVVPSTPPEVIKSMEQAQVVTP
MGSDKIHHHHHHVKKLLNTLFINQSDSYLALDGGNVLVKADGQVLGRVPLHNLEGIVAFGYTGASPALMGHCAENGIALTFMTKNGRFLARVIGESRGNVVLRKTQYRRSDDEVASARLAKNFILGKLYNQKWMLERMTRDYPLRLDVERFKTTSQDMTETMREIQVCENLERLRGLEGTIAVRYNRLFDSMILQQKEDFHFKGRTRRPPLDRVNAMLSFAYSLLARDVSAALEAVGLDAYVGFLHRERPGRASLALDVMEELRGIYADRFVLSLINKKVIQGKDFLQKENGAVIMTEEGRKTFLTAWQKKKQETIQHPYLKEKMMWGLVPYEQALLLARHLRDDLEAYPPFLYK
MGSDKIHHHHHHVKQQRKEIQVLDRLNQAMEYIERHLDQRIEGAELAQIAATSEYHMRRLFSALAGMPLSEYIRRRRLTVAGAEVLAGDRTLLDIAVRYGYGSAEAFARAFRAMHGVGPGEARRTGAPLRSQPRMSFRLVVEGSTDMRYRIVEKDAFQVVGKKARVPLVYEGPNPAIVEFVRSIDPGTLQRLAELSDQEPRGVVAAVANIAGERVSAPEGTELDYYHGVVTSAPAPEDMAVLPVAAGLWAVFEVEGEAPYAIQYLWRDVFTQWFPANPYQSVPGPELLRTTMSQDGAYVEAELWVPVERVER
MGSDKIHHHHHHVKVLVTGAAGFIGYSLATRLLARGDEVIGVDIVNDYYDPRLKEARLARLAQQGGGRFTFLRTDFADYPALTAALEGAHFDRIVHLGAQAGVRYSIENPHAYVQSNLVGHVNLLEVARHRGVEHMVYASSSSVYGGNTKLPFSVDDRVDHPLSLYAATKKADELMSETYAHLYRLPLTGLRFFTVYGPWGRPDMMMWLFTRAILAGEPIQVFNHGDMYRDFTYVDDIVSGVVACLDNPPLDDGAPKAGGSLKPHRLYNIGNHKSEHLMKVIAILEAELGRKAEMRMLPMQPGDVRQSFADIDAISGDLGYRPTTGIETGVPNFVRWYKDYHGL
MGSDKIHHHHHHVPLNSPLQLSLPVHLPDDETFNSYYPAAGNDELIQKLRANAEGQGEAAIYLWGPVKSGRTHLMHAACAHANEVERRSFYIPLGIHASISTALLEGLEQLDLVCIDDVDAIAGHPVWEEAIFDLYNRVAEHKNCALVVSGSSSPADAGFLLPDLVSRMQWGLNYQLQPMADDEKLAALQRRAAMRGLQLPEDVGRFLLNRMARDLRTLFDVLDKLDKASLVHQRKLTIPFAKEMLHL
MGSDKIHHHHHHVPRVARIKSKSGIYHIIMRGINRQIVFEENEDCVKFIQTLQKIQAICKYRLYAYCLMGNHLHLLLMEGTEPLGNVMRRICSSYVLWYNKKYDRVGYLFQDRFKSEPVEDDGYFLTVLRYIFQNPVKAGIVTKIKDYKWTNYTDYIEGSNKTDTDFVLDFFNTNRERAIRSFIEYINKTNDDKCLDIPGKRQLTDEDAKKIIKDHCHIYNALDLYKFDVNKRNQYLKELKEGYGLSIRQIERLTGIGRGIIQRA
MGSDKIHHHHHHVQESREFILEIAQLNKTYSGNRVLNNINFDLKLGEVHALVGENGAGKSTLIKIIAGVEKPDPGAEILFGGCPAINLNPSKSVQMGISVIYQDISLFPNLSVAENICIGGQKGLFIKWKQVFETARSALIKLGAIDIDPHVPLGEISIGQRQMVALARALTHEARVIIMDEPTSSLSANEIKALYSAIQILKNENKSLIYISHKFEEVFEVADRISVLRDGEMIASKAAWEFDEQSLISMMVGREIRFLPMRNDGVAGKKLLEVRGLTKEPLFRNISFSLYENEILGITGLVGAGRSEMAQTLFGLEKADKGRIFMGEKELSIKSAVDAIKSGICYLPEDRRGQGIFLIQSMARNITTAKLESILNRCRLLSRPKEMAVSEYYMDRLNIKPRLPDISADKMSGGNQQKLLFSRWLNARPQILIADEPSSGIDVATKAEIHGLLRELAASGVGVILISSDLPETLAVCDRILVMRNGNIVDQTSSKESSQEELIRKGLMG
